Measurements taken from patent US6465188, “Nucleic acid ligand complexes” (Gilead Sciences, Inc.).

Target: VEGF (vascular endothelial growth factor) (UniProt P15692-4 P15692-4:27-191)
Experiment: competition; competition ELISA apparent ED50; reduction attributed to geometry of liposome display
Conditions: chain copies: 2

Chain of VEGF (vascular endothelial growth factor) (P15692 other isoform, or with tags, fused parts or gaps): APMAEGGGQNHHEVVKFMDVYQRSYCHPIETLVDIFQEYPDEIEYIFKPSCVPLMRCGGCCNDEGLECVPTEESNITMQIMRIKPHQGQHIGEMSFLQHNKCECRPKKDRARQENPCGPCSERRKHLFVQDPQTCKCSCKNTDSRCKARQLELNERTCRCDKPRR

B1: NX278-Liposome (mixed)
mixed: TTTTACCCUGAUGGUAGACGCCGGGGUGTTTTT
modifications: 5'-dialkylglycerol (DAG), embedded in DSPC:cholesterol liposome; PS at 1-4 and 29-33; 2'-OMe at 5,13,16,17,20,23-26,28; 2'-NH2 at 6-9,12,15,19,21,22,27
EC50: ~100 nM
